# Data reported in publication PMC9482650, “Quantitative fragmentomics allow affinity mapping of interactomes” (Nature Communications, 2022).
# T1: LNX2_2, Q8N448
# T1 sequence (Q8N448 334-432, limits assumed, looked up): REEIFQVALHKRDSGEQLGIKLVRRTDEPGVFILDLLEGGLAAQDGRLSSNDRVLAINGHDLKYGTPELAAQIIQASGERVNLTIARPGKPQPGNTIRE
# T2: PCLO, Q9Y6V0
# T2 sequence (Q9Y6V0 4491-4600, limits assumed, looked up): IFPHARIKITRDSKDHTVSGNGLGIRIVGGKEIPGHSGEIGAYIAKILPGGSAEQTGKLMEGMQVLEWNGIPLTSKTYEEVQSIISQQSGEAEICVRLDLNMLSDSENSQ
# T3: GRIP1_3, Q9Y3R0
# T3 sequence (Q9Y3R0 247-346, limits assumed, looked up): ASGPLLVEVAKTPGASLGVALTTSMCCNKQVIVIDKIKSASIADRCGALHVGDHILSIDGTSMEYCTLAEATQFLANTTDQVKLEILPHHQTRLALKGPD
# T4: APBA3_1, O96018
# T4 sequence (O96018 389-490, limits assumed, looked up): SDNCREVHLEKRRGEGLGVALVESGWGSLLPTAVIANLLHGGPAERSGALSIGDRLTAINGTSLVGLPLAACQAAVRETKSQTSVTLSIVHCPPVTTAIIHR
# T5: DVL3, Q92997
# T5 sequence (Q92997 244-331, limits assumed, looked up): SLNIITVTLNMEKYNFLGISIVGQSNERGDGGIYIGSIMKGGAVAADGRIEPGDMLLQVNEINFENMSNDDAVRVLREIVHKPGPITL
# T6: SNTA1, Q13424
# T6 sequence (Q13424 82-180, limits assumed, looked up): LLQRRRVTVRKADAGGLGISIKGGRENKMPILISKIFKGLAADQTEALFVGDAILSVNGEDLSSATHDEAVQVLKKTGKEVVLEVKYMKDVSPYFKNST
# T7: MPDZ_5, O75970
# T7 sequence (O75970 695-796, limits assumed, looked up): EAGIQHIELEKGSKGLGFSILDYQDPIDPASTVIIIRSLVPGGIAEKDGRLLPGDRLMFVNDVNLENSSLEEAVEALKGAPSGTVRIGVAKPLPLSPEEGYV
# T8: MPDZ_10, O75970
# T8 sequence (O75970 1624-1722, limits assumed, looked up): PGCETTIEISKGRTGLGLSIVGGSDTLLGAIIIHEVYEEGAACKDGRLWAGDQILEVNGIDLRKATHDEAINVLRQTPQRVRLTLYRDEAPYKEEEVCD
# T9: PARD3B_1, Q8TEW8
# T9 sequence (Q8TEW8 196-299, limits assumed, looked up): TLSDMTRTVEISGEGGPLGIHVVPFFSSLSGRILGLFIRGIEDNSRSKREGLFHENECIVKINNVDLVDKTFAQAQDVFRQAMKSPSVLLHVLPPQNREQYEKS
# T10: SHANK1, Q9Y566
# T10 sequence (Q9Y566 658-767, limits assumed, looked up): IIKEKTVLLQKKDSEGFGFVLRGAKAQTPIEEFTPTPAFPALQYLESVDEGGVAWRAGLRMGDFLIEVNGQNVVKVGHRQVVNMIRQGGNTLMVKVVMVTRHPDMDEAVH
# T11: PDZD7_3, Q9H5P4
# T11 sequence (Q9H5P4 857-944, limits assumed, looked up): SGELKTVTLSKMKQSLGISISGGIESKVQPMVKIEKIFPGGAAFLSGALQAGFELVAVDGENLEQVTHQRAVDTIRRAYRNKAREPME
# T12: RADIL, Q96JH8
# T12 sequence (Q96JH8 971-1071, limits assumed, looked up): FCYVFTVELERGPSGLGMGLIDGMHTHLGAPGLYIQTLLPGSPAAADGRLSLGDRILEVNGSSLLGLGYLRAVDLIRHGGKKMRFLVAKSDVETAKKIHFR
# T13: SNTG1, Q9NSN8
# T13 sequence (Q9NSN8 52-150, limits assumed, looked up): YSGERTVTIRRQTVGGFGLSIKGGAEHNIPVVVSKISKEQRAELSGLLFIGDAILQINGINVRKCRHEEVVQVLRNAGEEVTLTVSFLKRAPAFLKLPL
# Tests used:
# Assay in all cases: holdup assay
# Design in all cases: key: below the threshold = too weak to quantify, mostly under pKd 3.1 to 4
# Details in all cases: plain residues with an end cap or a label only (N-terminal biotin on a linker: ado-ado)
# [1] = target: T1, LNX2_2, Q8N448
# [2] = target: T2, PCLO, Q9Y6V0
# [3] = target: Inadl_3, Q8NI35
# Inadl_3, Q8NI35, sequence (Q8NI35 359-469): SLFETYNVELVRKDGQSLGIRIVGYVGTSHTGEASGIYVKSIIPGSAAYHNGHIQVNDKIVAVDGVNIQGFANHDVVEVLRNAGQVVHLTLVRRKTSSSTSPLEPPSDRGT
# [4] = target: LIMK2, P53671
# LIMK2, P53671, sequence (P53671 143-248): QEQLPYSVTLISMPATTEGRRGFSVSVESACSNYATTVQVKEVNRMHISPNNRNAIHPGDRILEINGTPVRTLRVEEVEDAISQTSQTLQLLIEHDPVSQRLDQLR
# [5] = target: DLG4_2, P78352
# DLG4_2, P78352, sequence (P78352 155-259): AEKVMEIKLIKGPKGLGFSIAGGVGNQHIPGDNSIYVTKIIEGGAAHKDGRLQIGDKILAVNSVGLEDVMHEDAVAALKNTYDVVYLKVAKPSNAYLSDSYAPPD
# [6] = target: PDZRN4_1, Q6ZMN7
# PDZRN4_1, Q6ZMN7, sequence (Q6ZMN7 213-318): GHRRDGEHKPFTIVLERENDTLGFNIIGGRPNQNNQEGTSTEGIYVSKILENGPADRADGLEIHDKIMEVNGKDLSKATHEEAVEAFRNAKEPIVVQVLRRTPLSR
# [7] = target: T3, GRIP1_3, Q9Y3R0
# [8] = target: T4, APBA3_1, O96018
# [9] = target: GRID2IP_1, A4D2P6
# GRID2IP_1, A4D2P6, sequence (A4D2P6 1-87): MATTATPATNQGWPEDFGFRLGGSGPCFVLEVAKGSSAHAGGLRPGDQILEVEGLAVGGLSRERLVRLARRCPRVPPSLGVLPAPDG
# [10] = target: T5, DVL3, Q92997
# [11] = target: MAGI1_2, Q96QZ7
# MAGI1_2, Q96QZ7, sequence (Q96QZ7 456-580): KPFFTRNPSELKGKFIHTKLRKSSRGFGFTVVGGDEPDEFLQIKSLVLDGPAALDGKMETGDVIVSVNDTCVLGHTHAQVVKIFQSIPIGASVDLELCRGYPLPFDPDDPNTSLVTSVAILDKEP
# [12] = target: T6, SNTA1, Q13424
# [13] = target: T7, MPDZ_5, O75970
# [14] = target: MAGI2_4, Q86UL8
# MAGI2_4, Q86UL8, sequence (Q86UL8 772-865): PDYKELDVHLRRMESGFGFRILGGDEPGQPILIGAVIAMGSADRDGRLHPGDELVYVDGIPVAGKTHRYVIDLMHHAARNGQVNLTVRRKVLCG
# [15] = target: LNX1_1, Q8TBB1
# LNX1_1, Q8TBB1, sequence (Q8TBB1 261-371): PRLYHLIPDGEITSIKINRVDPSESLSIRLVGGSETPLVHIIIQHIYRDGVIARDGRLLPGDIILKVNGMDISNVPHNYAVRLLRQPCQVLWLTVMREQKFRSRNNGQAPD
# [16] = target: T8, MPDZ_10, O75970
# [17] = target: FRMPD2_3, Q68DX3
# FRMPD2_3, Q68DX3, sequence (Q68DX3 1073-1166): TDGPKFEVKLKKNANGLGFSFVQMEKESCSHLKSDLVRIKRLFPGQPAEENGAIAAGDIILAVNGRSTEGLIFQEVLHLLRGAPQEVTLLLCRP
# [18] = target: IL16_1, Q14005
# IL16_1, Q14005, sequence (Q14005 210-306): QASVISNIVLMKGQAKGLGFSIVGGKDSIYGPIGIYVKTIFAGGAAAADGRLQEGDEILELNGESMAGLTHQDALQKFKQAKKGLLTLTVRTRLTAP
# [19] = target: T9, PARD3B_1, Q8TEW8
# [20] = target: T10, SHANK1, Q9Y566
# [21] = target: T11, PDZD7_3, Q9H5P4
# [22] = target: T12, RADIL, Q96JH8
# [23] = target: CASK, O14936
# CASK, O14936, sequence (O14936 487-570): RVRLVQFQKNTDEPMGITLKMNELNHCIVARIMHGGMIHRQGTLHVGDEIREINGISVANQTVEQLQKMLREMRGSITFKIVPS
# [24] = target: T13, SNTG1, Q9NSN8
Binder,pKd [1],pKd [2],pKd [3],pKd [4],pKd [5],pKd [6],pKd [7],pKd [8],pKd [9],pKd [10],pKd [11],pKd [12],pKd [13],pKd [14],pKd [15],pKd [16],pKd [17],pKd [18],pKd [19],pKd [20],other results
"RDFDYIADWC [PKN2, Q16513]",4.59,below the threshold,3.6,below the threshold,below the threshold,below the threshold,below the threshold,below the threshold,below the threshold,below the threshold,below the threshold,below the threshold,below the threshold,3.53,below the threshold,3.87,below the threshold,below the threshold,3.54,below the threshold,pKd [21]: below the threshold; pKd [22]: 4.2; pKd [23]: 3.54; pKd [24]: below the threshold
"RRLQGTSSMV [GOLT1A, Q6ZVE7]",3.78,below the threshold,below the threshold,below the threshold,4.71,below the threshold,below the threshold,below the threshold,below the threshold,below the threshold,4.04,below the threshold,below the threshold,below the threshold,3.83,3.65,below the threshold,4.13,below the threshold,below the threshold,pKd [21]: below the threshold; pKd [22]: 4.28; pKd [23]: below the threshold; pKd [24]: 3.7
"TGPWKNETTV [ADGRA1, Q86SQ6]",4.93,below the threshold,below the threshold,below the threshold,5.08,4.31,below the threshold,below the threshold,below the threshold,below the threshold,4.67,4.59,below the threshold,4.74,below the threshold,below the threshold,below the threshold,3.83,below the threshold,below the threshold,pKd [21]: 4.9; pKd [22]: 4.04; pKd [23]: below the threshold; pKd [24]: 4.19
"NRVDSKETEC [ADAM17, P78536]",3.5,below the threshold,below the threshold,3.48,4.34,below the threshold,below the threshold,below the threshold,below the threshold,below the threshold,below the threshold,4.7,below the threshold,3.53,below the threshold,below the threshold,below the threshold,below the threshold,below the threshold,below the threshold,pKd [21]: below the threshold; pKd [22]: below the threshold; pKd [23]: below the threshold; pKd [24]: 3.63
"VRPGVKESLV [SCN4A, P35499]",3.91,below the threshold,below the threshold,below the threshold,5.71,4.25,below the threshold,below the threshold,below the threshold,below the threshold,4.6,4.76,below the threshold,4.37,3.89,below the threshold,below the threshold,4.78,below the threshold,below the threshold,pKd [21]: 5.05; pKd [22]: 4.22; pKd [23]: below the threshold; pKd [24]: 4.85
"LDKESFLTWL [YAP1, P46937]",4.38,3.57,4.38,below the threshold,below the threshold,4.1,below the threshold,below the threshold,below the threshold,4.64,3.49,below the threshold,below the threshold,3.94,4.25,below the threshold,below the threshold,3.55,4.44,5.4,pKd [21]: 4.92; pKd [22]: 5.51; pKd [23]: below the threshold; pKd [24]: below the threshold
